Assay results reported in article PMC3711648.

Molecular target: human mutant SOD1 G93A (Cu/Zn superoxide dismutase) (human)
Test: SEC

Substance: human mutant SOD1 G93A (Cu/Zn superoxide dismutase) (natural protein)
- stoichiometry N: 2
